Laboratory results published in PMC10590968, “Deciphering the role of recurrent FAD-dependent enzymes in bacterial phosphonate catabolism” (iScience, 2023).

Tests used:
[1] = target: T1, PbfC (Azospirillum sp. B510, UniProt P0DY71); assay: UV-vis spectra of bound flavin; cofactor released by heat or SDS; format: binding; conditions: noncovalent; 10 μM FAD added during purification; 50 mM TEA-HCl pH 8.0
T1 construct: synthetic codon-optimised gene in pET28a, N-terminal His tag, expressed in E. coli Tuner (DE3), HisTrap and SEC; noncovalent FAD
T1 sequence (P0DY71 1-415): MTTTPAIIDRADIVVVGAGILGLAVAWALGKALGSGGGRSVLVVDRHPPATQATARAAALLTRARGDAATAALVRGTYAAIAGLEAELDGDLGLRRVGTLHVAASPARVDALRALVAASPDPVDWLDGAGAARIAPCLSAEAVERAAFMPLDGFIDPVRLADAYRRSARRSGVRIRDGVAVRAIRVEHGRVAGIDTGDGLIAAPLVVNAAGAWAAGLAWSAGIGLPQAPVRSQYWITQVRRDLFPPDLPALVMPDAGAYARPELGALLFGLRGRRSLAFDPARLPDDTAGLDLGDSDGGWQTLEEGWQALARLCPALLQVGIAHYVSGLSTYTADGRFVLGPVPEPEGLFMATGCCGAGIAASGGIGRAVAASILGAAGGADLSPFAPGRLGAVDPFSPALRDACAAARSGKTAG

[2] = target: T2, PbfD1 (Acinetobacter baumannii, UniProt P0DY72); assay: as above; format: binding; conditions: noncovalent; 10 μM FAD added at lysis; 50 mM TEA-HCl pH 8.0
T2 construct: gene pbfD; synthetic codon-optimised gene in pET28a, N-terminal His tag, expressed in E. coli Tuner (DE3), HisTrap; noncovalent FAD
T2 sequence (P0DY72 1-384): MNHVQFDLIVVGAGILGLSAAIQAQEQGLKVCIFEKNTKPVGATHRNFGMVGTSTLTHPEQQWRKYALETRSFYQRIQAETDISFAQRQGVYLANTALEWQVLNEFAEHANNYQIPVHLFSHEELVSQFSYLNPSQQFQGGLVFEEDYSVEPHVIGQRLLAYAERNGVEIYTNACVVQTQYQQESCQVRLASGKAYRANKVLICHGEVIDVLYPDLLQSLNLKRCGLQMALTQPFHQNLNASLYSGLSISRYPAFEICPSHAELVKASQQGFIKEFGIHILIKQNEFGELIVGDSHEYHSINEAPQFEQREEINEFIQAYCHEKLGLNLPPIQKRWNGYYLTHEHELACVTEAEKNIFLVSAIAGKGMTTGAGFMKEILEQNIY

[3] = target: T3, PbfD2 (Mariniblastus fucicola, UniProt A0A5B9PNB8); assay: as above; format: binding; conditions: noncovalent; 10 μM FAD added at lysis; 50 mM TEA-HCl pH 8.0
T3 construct: gene pbfD; noncovalent FAD
T3 sequence (A0A5B9PNB8 1-373): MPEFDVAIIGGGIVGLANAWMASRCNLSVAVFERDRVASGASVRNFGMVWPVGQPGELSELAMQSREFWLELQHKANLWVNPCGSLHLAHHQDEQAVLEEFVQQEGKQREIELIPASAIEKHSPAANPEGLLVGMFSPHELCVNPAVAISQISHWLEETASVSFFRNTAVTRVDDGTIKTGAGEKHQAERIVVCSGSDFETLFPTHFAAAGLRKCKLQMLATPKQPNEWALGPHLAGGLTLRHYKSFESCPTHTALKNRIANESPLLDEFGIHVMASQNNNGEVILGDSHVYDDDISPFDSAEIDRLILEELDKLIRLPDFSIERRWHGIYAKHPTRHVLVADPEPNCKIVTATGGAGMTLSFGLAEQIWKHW

[4] = substrate: CNCCP(=O)(O)O; assay: purified protein
[5] = substrate: NCCP(=O)(O)O; assay: purified protein
[6] = substrate: CN(C)CCP(=O)(O)O; assay: coupled PhnX-ADH assay, NADH A340, Michaelis-Menten fit; format: biochemical, Acinetobacter baumannii; conditions: air-saturated (~0.25 mM O2), 50 mM TEA-HCl pH 8.0, 2.5 mM MgCl2, 25°C
Description: (§1) coupled PhnX-ADH assay, NADH A340, Michaelis-Menten fit on PbfD1

[7] = substrate: CNCCP(=O)(O)O; assay: as above; format: biochemical, Acinetobacter baumannii; conditions: air-saturated (~0.25 mM O2), 50 mM TEA-HCl pH 8.0, 2.5 mM MgCl2, 25°C
Description: as §1

[8] = substrate: NCCP(=O)(O)O; assay: as above; format: biochemical, Acinetobacter baumannii; conditions: air-saturated (~0.25 mM O2), 50 mM TEA-HCl pH 8.0, 2.5 mM MgCl2, 25°C
Description: as §1

[9] = 80 μM DCPIP, 3 mM PMS, 50 mM TEA-HCl pH 8.0, 25°C
[10] = air-saturated (~0.25 mM O2), 50 mM TEA-HCl pH 8.0, 2.5 mM MgCl2, 25°C

Cc1cc2nc3c(=O)[nH]c(=O)nc-3n(C[C@H](O)[C@H](O)[C@H](O)COP(=O)(O)OP(=O)(O)OC[C@H]3O[C@@H](n4cnc5c(N)ncnc54)[C@H](O)[C@@H]3O)c2cc1C [FAD]
UV-vis spectra of bound flavin; cofactor released by heat or SDS [1]: the spectrum of the released cofactor was typical of FAD
UV-vis spectra of bound flavin; cofactor released by heat or SDS [2]: the spectrum of the released cofactor was typical of FAD
UV-vis spectra of bound flavin; cofactor released by heat or SDS [3]: the spectrum of the released cofactor was typical of FAD

B1: PbfC (Azospirillum sp. B510) (protein)
chain: MTTTPAIIDRADIVVVGAGILGLAVAWALGKALGSGGGRSVLVVDRHPPATQATARAAALLTRARGDAATAALVRGTYAAIAGLEAELDGDLGLRRVGTLHVAASPARVDALRALVAASPDPVDWLDGAGAARIAPCLSAEAVERAAFMPLDGFIDPVRLADAYRRSARRSGVRIRDGVAVRAIRVEHGRVAGIDTGDGLIAAPLVVNAAGAWAAGLAWSAGIGLPQAPVRSQYWITQVRRDLFPPDLPALVMPDAGAYARPELGALLFGLRGRRSLAFDPARLPDDTAGLDLGDSDGGWQTLEEGWQALARLCPALLQVGIAHYVSGLSTYTADGRFVLGPVPEPEGLFMATGCCGAGIAASGGIGRAVAASILGAAGGADLSPFAPGRLGAVDPFSPALRDACAAARSGKTAG
Km [4, 9]: 0.20 ± 0.01 mM
kcat [4, 9]: 9 ± 0.2 s⁻¹
kcat/Km [4, 9]: 45000 ± 2700 M⁻¹ s⁻¹
Km [5, 9]: 20 ± 1.7 mM
kcat [5, 9]: 2.2 ± 0.1 s⁻¹
kcat/Km [5, 9]: 110 ± 6 M⁻¹ s⁻¹

B2: PbfD1 (Acinetobacter baumannii) (protein)
chain: MNHVQFDLIVVGAGILGLSAAIQAQEQGLKVCIFEKNTKPVGATHRNFGMVGTSTLTHPEQQWRKYALETRSFYQRIQAETDISFAQRQGVYLANTALEWQVLNEFAEHANNYQIPVHLFSHEELVSQFSYLNPSQQFQGGLVFEEDYSVEPHVIGQRLLAYAERNGVEIYTNACVVQTQYQQESCQVRLASGKAYRANKVLICHGEVIDVLYPDLLQSLNLKRCGLQMALTQPFHQNLNASLYSGLSISRYPAFEICPSHAELVKASQQGFIKEFGIHILIKQNEFGELIVGDSHEYHSINEAPQFEQREEINEFIQAYCHEKLGLNLPPIQKRWNGYYLTHEHELACVTEAEKNIFLVSAIAGKGMTTGAGFMKEILEQNIY
notes: synthetic codon-optimised gene in pET28a, N-terminal His tag, expressed in E. coli Tuner (DE3), HisTrap; noncovalent FAD
Km [6]: 54 ± 14 mM
kcat [6]: 22 ± 4.5 s⁻¹
kcat/Km [6]: 400 ± 26 M⁻¹ s⁻¹
Km [7]: 5.8 ± 0.62 mM
kcat [7]: 13.2 ± 0.54 s⁻¹
kcat/Km [7]: 2300 ± 160 M⁻¹ s⁻¹
Km [8]: 71 ± 16 mM
kcat [8]: 9.1 ± 1.7 s⁻¹
kcat/Km [8]: 130 ± 6 M⁻¹ s⁻¹

B3: PbfD2 (Mariniblastus fucicola) (protein)
chain: MPEFDVAIIGGGIVGLANAWMASRCNLSVAVFERDRVASGASVRNFGMVWPVGQPGELSELAMQSREFWLELQHKANLWVNPCGSLHLAHHQDEQAVLEEFVQQEGKQREIELIPASAIEKHSPAANPEGLLVGMFSPHELCVNPAVAISQISHWLEETASVSFFRNTAVTRVDDGTIKTGAGEKHQAERIVVCSGSDFETLFPTHFAAAGLRKCKLQMLATPKQPNEWALGPHLAGGLTLRHYKSFESCPTHTALKNRIANESPLLDEFGIHVMASQNNNGEVILGDSHVYDDDISPFDSAEIDRLILEELDKLIRLPDFSIERRWHGIYAKHPTRHVLVADPEPNCKIVTATGGAGMTLSFGLAEQIWKHW
Km [4, 10]: 0.36 ± 0.02 mM
kcat [4, 10]: 4.9 ± 0.07 s⁻¹
kcat/Km [4, 10]: 13500 ± 550 M⁻¹ s⁻¹
Km [5, 10]: 2.6 ± 0.32 mM
kcat [5, 10]: 8.9 ± 0.3 s⁻¹
kcat/Km [5, 10]: 3400 ± 320 M⁻¹ s⁻¹
